Data reported in US20250011433A1 (GLIKNIK, published 2025).
Read-outs that look alike come from different tables or passages of the source.

T1: FcγRIIb (UniProt P31994 46-217, limits assumed)
T1 sequence (looked up): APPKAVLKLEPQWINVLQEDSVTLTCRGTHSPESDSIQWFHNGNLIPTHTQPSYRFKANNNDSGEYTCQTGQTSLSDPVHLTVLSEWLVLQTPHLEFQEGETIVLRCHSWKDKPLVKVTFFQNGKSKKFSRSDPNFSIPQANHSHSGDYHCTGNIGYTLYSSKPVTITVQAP


Assays:
C1q [1] = molecular target: T2, C1q (UniProt P02745 23-245; P02746 28-253; P02747 29-245); experiment: ELISA on coated C1q
T2 construct: bought C1q coated on ELISA plates at 1 µg/ml; also called complement C1q; complement factor C1q

FcγRI = molecular target: T3, FcγRI (UniProt P12314 16-288); experiment: BLI (Octet)
T3 construct: also called CD64

FcγRIIb = molecular target: T1, FcγRIIb; experiment: BLI (Octet)
C1q [2] = molecular target: T2, C1q; experiment: ELISA on coated C1q; remark: listed apart in the source

T2 sequence (P02745 23-245 limits assumed, chain 1 of 3): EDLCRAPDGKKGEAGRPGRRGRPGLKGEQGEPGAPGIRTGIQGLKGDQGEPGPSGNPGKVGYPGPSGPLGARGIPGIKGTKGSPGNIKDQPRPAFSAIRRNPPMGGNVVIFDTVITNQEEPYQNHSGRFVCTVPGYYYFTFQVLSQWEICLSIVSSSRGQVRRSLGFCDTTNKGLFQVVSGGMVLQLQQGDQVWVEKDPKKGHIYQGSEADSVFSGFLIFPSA
T2 sequence (P02746 28-253 limits assumed, chain 2 of 3): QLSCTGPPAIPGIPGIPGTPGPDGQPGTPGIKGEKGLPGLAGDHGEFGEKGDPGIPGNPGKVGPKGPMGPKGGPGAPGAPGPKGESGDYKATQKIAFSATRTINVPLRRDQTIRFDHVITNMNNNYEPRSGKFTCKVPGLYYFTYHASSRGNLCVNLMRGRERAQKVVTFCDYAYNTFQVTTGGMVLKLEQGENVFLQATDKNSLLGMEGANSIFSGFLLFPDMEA
T2 sequence (P02747 29-245 limits assumed, chain 3 of 3): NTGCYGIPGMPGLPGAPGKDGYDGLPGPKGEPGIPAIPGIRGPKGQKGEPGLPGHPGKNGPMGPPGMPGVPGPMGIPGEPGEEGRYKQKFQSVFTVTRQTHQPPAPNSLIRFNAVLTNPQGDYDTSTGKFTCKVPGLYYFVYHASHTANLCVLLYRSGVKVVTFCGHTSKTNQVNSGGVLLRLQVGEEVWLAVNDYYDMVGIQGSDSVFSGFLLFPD
T3 sequence (P12314 16-288 limits assumed): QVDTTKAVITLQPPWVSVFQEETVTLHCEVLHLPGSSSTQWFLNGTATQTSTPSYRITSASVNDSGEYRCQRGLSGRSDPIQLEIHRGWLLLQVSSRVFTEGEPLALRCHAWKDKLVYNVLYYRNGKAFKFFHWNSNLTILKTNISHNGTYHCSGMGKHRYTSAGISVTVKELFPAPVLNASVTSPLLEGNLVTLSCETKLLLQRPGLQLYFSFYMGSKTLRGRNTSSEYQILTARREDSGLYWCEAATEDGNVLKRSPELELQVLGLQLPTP

binding result (C1q [1]) | binding result (FcγRI) | binding result (FcγRIIb) | binding result (C1q [2]) | Binder
no binding | – | – | – | G1031 (Fc fusion) EPKSCDKTHTCPPCPAPPLLRGPSVFLFPPKPKDTLMISRTPEVTCVVVAVEFEDPEVKFNWYVDGVEVHNAKTKPREEQYASTYRVVSVLTVLHQDWLNGKEYKCKVTNKALPAPIEKTISKAKGQPREPQVYTLPPSRDELTKNQVSLTCLVKGFYPSDIAVEWESNGQPENNYKTTPPVLDSDGSFFLYSKLTVDKSRWQQGNVFSCSVMHEALHNHYTQKSLSLSPGKERKCCVECPPCP
– | binds | binds | – | G1047 (Fc fusion) EPKSCDKTHTCPPCPAPELLGGDSVFLFPPKPKDTLMISRTPEVTCVVVDVEFEDPEVKFNWYVDGVEVHNAKTKPREEQYNSTYRVVSVLTVLHQDWLNGKEYKCKVTNKAFPAPIEKTISKAKGQPREPQVYTLPPSRDELTKNQVSLTCLVKGFYPSDIAVEWESNGQPENNYKTTPPVLDSDGSFFLYSKLTVDKSRWQQGNVFSCSVMHEALHNHYTQKSLSLSPGKERKCCVECPPCP
no binding | binds | – | – | G1045 (Fc fusion) EPKSCDKTHTCPPCPAPELLGGDSVFLFPPKPKDTLMISRTPEVTCVVVPVEFEDPEVKFNWYVDGVEVHNAKTKPREEQYNSTYRVVSVLTVLHQDWLNGKEYKCKVTNKALPAPIEKTISKAKGQPREPQVYTLPPSRDELTKNQVSLTCLVKGFYPSDIAVEWESNGQPENNYKTTPPVLDSDGSFFLYSKLTVDKSRWQQGNVFSCSVMHEALHNHYTQKSLSLSPGKERKCCVECPPCP
– | binds | – | no binding | G1044 (Fc fusion) EPKSCDKTHTCPPCPAPELLGGDSVFLFPPKPKDTLMISRTPEVTCVVVCVEFEDPEVKFNWYVDGVEVHNAKTKPREEQYNSTYRVVSVLTVLHQDWLNGKEYKCKVTNKALPAPIEKTISKAKGQPREPQVYTLPPSRDELTKNQVSLTCLVKGFYPSDIAVEWESNGQPENNYKTTPPVLDSDGSFFLYSKLTVDKSRWQQGNVFSCSVMHEALHNHYTQKSLSLSPGKERKCCVECPPCP
– | binds | binds | no binding | G999 (Fc fusion, G019 background, G236R/S267E/H268F/S324T) ERKCCVECPPCPEPKSCDKTHTCPPCPAPELLRGPSVFLFPPKPKDTLMISRTPEVTCVVVDVEFEDPEVKFNWYVDGVEVHNAKTKPREEQYNSTYRVVSVLTVLHQDWLNGKEYKCKVTNKALPAPIEKTISKAKGQPREPQVYTLPPSRDELTKNQVSLTCLVKGFYPSDIAVEWESNGQPENNYKTTPPVLDSDGSFFLYSKLTVDKSRWQQGNVFSCSVMHEALHNHYTQKSLSLSPGK
no binding | – | – | – | G1024 (Fc fusion, G019 background, P238D/S267E/H268F/S324T) ERKCCVECPPCPEPKSCDKTHTCPPCPAPELLGGDSVFLFPPKPKDTLMISRTPEVTCVVVDVEFEDPEVKFNWYVDGVEVHNAKTKPREEQYNSTYRVVSVLTVLHQDWLNGKEYKCKVTNKALPAPIEKTISKAKGQPREPQVYTLPPSREEMTKNQVSLTCLVKGFYPSDIAVEWESNGQPENNYKTTPPVLDSDGSFFLYSKLTVDKSRWQQGNVFSCSVMHEALHNHYTQKSLSLSPGK
– | binds | – | no binding | G1001 (Fc fusion, G019 background, S267E/H268F/S324T/N297A) ERKCCVECPPCPEPKSCDKTHTCPPCPAPELLGGPSVFLFPPKPKDTLMISRTPEVTCVVVDVEFEDPEVKFNWYVDGVEVHNAKTKPREEQYASTYRVVSVLTVLHQDWLNGKEYKCKVTNKALPAPIEKTISKAKGQPREPQVYTLPPSREEMTKNQVSLTCLVKGFYPSDIAVEWESNGQPENNYKTTPPVLDSDGSFFLYSKLTVDKSRWQQGNVFSCSVMHEALHNHYTQKSLSLSPGK
